Series [1] has as its target T1, acid β-glucosidase (GCase; Cerezyme®) (Homo sapiens, UniProt P04062, R534H).
T1 construct: purchased Genzyme Corp
T1 sequence (P04062 40-536 R534H): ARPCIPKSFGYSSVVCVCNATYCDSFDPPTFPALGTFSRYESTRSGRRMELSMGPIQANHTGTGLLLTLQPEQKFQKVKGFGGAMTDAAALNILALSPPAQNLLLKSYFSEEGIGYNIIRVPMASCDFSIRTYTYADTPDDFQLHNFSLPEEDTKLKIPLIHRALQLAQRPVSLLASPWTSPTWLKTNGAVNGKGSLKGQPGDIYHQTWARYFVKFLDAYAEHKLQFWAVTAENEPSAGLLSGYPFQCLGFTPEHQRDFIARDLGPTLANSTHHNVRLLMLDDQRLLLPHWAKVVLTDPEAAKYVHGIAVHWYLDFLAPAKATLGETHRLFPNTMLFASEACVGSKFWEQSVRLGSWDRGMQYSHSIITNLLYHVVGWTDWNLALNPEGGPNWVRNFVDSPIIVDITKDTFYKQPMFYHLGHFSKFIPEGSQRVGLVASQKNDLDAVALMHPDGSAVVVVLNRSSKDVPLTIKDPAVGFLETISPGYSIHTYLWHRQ
Kind of series: SYPRO Orange thermal stability assay (heat denaturation) of GCase. The series is classed as binding. As to conditions: pH 5.2 versus pH 7.4, no chaperone. How it is done: FIG. 4 depicts the results of a thermal stability assay that utilizes heat to induce protein denaturation, which is monitored using a SYPRO Orange dye that fluoresces upon binding to hydrophobic amino acids (which are not exposed in a folded protein). Isofagomine increases acid β-glucosidase thermostability as evident by increases in melting temperature in a dose-dependent manner. The experiment was conducted at pH 7.4.
FIG. 8 depicts the stability of recombinant human GCase (Cerazyme®, Genzyme Corp.) at neutral pH (7.4) or acidic pH (5.2) in the presence or absence of 10 μM of IFG as determined in a thermal stability assay. The thermal stability assay utilizes heat to induce protein denaturation, which is monitored using a SYPRO Orange dye that fluoresces upon binding to hydrophobic amino acids (which are not exposed in a folded protein).
A thermal stability experiment as generally described in Example 1 was performed on three compositions of GCase (Cerezyme®):
A thermal stability experiment as generally described in Examples 1 and 4 was performed on three compositions of GCase (Cerezyme®):
Protein denaturation was monitored using SYPRO Orange dye which fluoresces when bound to exposed hydrophobic amino acids.

For series [2], the target named is T2, recombinant human GCase (Cerezyme®) (Homo sapiens, UniProt P04062, R534H).
T2 construct: purchased Genzyme Corp
T2 sequence (P04062 40-536 R534H): T1 sequence (P04062 40-536 R534H)
Kind of series: GCase activity in human plasma at 37° C. (4-MUG). It is filed as in vitro ADME. As to conditions: human plasma, 0.5 μM GCase, no chaperone. How it is done:
FIG. 10 depicts the effects of IFG on recombinant human GCase (GCase; Cerezyme®, Genzyme Corp.) activity in human plasma at 37° C. GCase activity was evaluated to assess the ability of an ASSC to prolong the activity of GCase in human plasma over time. Cerezyme (0.5 μM) was incubated in human plasma with increasing concentrations of IFG (3 μM, 30 μM, or 100 μM) at 37° C. over 4 hours. Samples were assayed for GCase enzyme activity using 4-MU-β-glucose at 0.25, 0.5, 1, 2 and 4 hours and the residual GCase activity was expressed as % of initial activity.
The activity of GCase (0.5 μM; Cerazyme®) at 37° C. in human plasma was assessed for increasing concentrations of IFG (3 μM, 30 μM, and 100 μM) as a function time using the substrate 4-MUG.

Positions count from the first letter of the chain named. Bounds are passed on as bounds.

B1: GCase: recombinant human GCase (Cerezyme®, Genzyme Corp.) (protein, UniProt P04062 40-536, looked up)
Lysosomal acid …: T1 sequence (P04062 40-536 R534H) with H495R
modifications: imiglucerase
Turning to B1, in series [1], the “Stability of GCase at acidic versus neutral pH (thermal stability assay)” value is “more stable at acidic (lysosomal) pH than at neutral pH”. Also, in series [2], the “Time by which GCase is completely inactive” value was not above 1 h and the “Time by which most GCase is inactivated” value was not above 30 min.

(Values after patent US9206457B2, “Utilization of pharmacological chaperones to improve manufacturing and purification of biologics” (Amicus Therapeutics, Inc., priority 2009, dated 2015).)
